{"source": "paper PMC5173032", "about": "“A plasma proteolysis pathway comprising blood coagulation proteases” (Oncotarget, 2016)", "binders": {"B1": {"name": "recombinant human FXII with 6XHis C-terminal tag (natural protein, UniProt P00748 20-615, looked up)", "chain": "IPPWEAPKEHKYKAEEHTVVLTVTGEPCHFPFQYHRQLYHKCTHKGRPGPQPWCATTPNFDQDQRWGYCLEPKKVKDHCSKHSPCQKGGTCVNMPSGPHCLCPQHLTGNHCQKEKCFEPQLLRFFHKNEIWYRTEQAAVARCQCKGPDAHCQRLASQACRTNPCLHGGRCLEVEGHRLCHCPVGYTGAFCDVDTKASCYDGRGLSYRGLARTTLSGAPCQPWASEATYRNVTAEQARNWGLGGHAFCRNPDNDIRPWCFVLNRDRLSWEYCDLAQCQTPTQAAPPTPVSPRLHVPLMPAQPAPPKPQPTTRTPPQSQTPGALPAKREQPPSLTRNGPLSCGQRLRKSLSSMTRVVGGLVALRGAHPYIAALYWGHSFCAGSLIAPCWVLTAAHCLQDRPAPEDLTVVLGQERRNHSCEPCQTLAVRSYRLHEAFSPVSYQHDLALLRLQEDADGSCALLSPYVQPVCLPSGAARPSETTLCQVAGWGHQFEGAEEYASFLQEAQVPFLSLERCSAPDVHGSSILPGMLCAGFLEGGTDACQGDSGGPLVCEDQAAERRLTLQGIISWGSGCGDRNKPGVYTDVAYYLAWIREHTVS", "notes": "signal peptide in the construct; also called factor XII; source: CHO-K1, transfected (pCMV6-XL5), purified from cell lysate (Ni-NTA agarose); not shown: His6, C-terminal, kept"}}, "settings_in_all_cases": "both partners purified", "key": {"human amyloid β1-42": {"target": "T1, human amyloid β1-42 (human, UniProt P05067 672-713)", "T1 construct": "amyloid β1-42, the peptide cut by secretases from the human Aβ precursor protein; numbers count on: the peptide; also called hAβ1-42; Aβ1-42; source: bought: Sigma-Aldrich (A9810)", "experiment": "co-sedimentation; hAβ1-42 (200 nM) incubated with FXII or a mutant (20 nM) in PBS, 100 μl, 2 h at RT; Aβ1-42 aggregated; low-speed centrifugation; precipitates re-dissolved in 2% SDS and analysed with the supernatants by IB"}, "20I-50Pdel-FXII": {"target": "T2, 20I-50Pdel-FXII (human, UniProt P00748 20-615, 20I-50Pdel)", "T2 construct": "signal peptide in the construct; source: CHO-K1, transfected (pCMV6-XL5), purified from cell lysate (Ni-NTA agarose); not shown: His6, C-terminal, kept", "T2 sequence (looked up)": "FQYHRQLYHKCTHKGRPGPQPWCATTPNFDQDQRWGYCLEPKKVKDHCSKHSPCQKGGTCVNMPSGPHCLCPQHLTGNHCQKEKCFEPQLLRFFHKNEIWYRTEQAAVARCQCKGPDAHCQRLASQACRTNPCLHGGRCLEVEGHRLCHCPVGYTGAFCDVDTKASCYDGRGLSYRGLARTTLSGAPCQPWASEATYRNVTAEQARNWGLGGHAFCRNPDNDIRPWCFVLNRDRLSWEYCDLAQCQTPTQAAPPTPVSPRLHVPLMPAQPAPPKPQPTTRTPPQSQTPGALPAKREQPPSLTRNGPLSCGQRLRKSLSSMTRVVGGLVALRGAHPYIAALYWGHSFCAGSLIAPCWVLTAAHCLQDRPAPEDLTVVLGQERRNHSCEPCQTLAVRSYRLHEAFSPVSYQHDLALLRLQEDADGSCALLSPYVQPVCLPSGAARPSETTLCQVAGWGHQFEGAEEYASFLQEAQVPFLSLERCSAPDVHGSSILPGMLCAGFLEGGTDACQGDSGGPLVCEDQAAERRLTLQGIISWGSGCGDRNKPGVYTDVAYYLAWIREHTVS", "experiment": "co-IP; purified proteins: hPEPD, an hPEPD mutant or mSRC at 40 nM incubated with a coagulation factor, FXII or an FXII mutant at 0.5 μM in PBS, 100 μl, 2 h at 37°C; then a specific primary antibody at 4°C overnight, IP by protein G-agarose, IB"}, "153T-172Rdel-FXII": {"target": "T3, 153T-172Rdel-FXII (human, UniProt P00748 20-615, 153T-172Rdel)", "T3 construct": "signal peptide in the construct; source: CHO-K1, transfected (pCMV6-XL5), purified from cell lysate (Ni-NTA agarose); not shown: His6, C-terminal, kept", "T3 sequence (looked up)": "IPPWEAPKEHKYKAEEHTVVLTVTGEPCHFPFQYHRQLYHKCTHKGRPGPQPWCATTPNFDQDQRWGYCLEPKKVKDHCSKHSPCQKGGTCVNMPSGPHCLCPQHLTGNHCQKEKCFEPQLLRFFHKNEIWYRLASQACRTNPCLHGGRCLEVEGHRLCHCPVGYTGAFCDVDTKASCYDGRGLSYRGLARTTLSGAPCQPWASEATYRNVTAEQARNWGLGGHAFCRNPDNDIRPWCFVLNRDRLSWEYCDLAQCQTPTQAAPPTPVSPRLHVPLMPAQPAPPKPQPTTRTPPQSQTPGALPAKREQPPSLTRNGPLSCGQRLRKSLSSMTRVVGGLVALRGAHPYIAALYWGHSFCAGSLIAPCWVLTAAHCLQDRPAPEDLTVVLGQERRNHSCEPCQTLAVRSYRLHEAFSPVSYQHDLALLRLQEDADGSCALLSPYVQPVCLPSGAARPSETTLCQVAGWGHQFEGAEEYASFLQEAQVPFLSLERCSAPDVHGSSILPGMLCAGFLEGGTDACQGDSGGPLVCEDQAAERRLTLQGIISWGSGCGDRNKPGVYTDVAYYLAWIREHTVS", "experiment": "co-IP; purified proteins: hPEPD, an hPEPD mutant or mSRC at 40 nM incubated with a coagulation factor, FXII or an FXII mutant at 0.5 μM in PBS, 100 μl, 2 h at 37°C; then a specific primary antibody at 4°C overnight, IP by protein G-agarose, IB"}, "[1]": {"target": "B1", "experiment": "co-IP; purified proteins: hPEPD, an hPEPD mutant or mSRC at 40 nM incubated with a coagulation factor, FXII or an FXII mutant at 0.5 μM in PBS, 100 μl, 2 h at 37°C; then a specific primary antibody at 4°C overnight, IP by protein G-agarose, IB"}}}
{"binder": "B1", "values": [{"measurement": "binding result", "setting": "human amyloid β1-42", "result": "binds"}]}
{"binder": "recombinant human prolidase (peptidase D, PEPD) (enzyme, UniProt P12955 1-493, looked up, human prolidase (peptidase D); also called hPEPD; source: recombinant, generated, purified and characterized as recently reported [7, 11]; not shown: His6, C-terminal, kept) MAAATGPSFWLGNETLKVPLALFALNRQRLCERLRKNPAVQAGSIVVLQGGEETQRYCTDTGVLFRQESFFHWAFGVTEPGCYGVIDVDTGKSTLFVPRLPASHATWMGKIHSKEHFKEKYAVDDVQYVDEIASVLTSQKPSVLLTLRGVNTDSGSVCREASFDGISKFEVNNTILHPEIVECRVFKTDMELEVLRYTNKISSEAHREVMKAVKVGMKEYELESLFEHYCYSRGGMRHSSYTCICGSGENSAVLHYGHAGAPNDRTIQNGDMCLFDMGGEYYCFASDITCSFPANGKFTADQKAVYEAVLRSSRAVMGAMKPGVWWPDMHRLADRIHLEELAHMGILSGSVDAMVQAHLGAVFMPHGLGHFLGIDVHDVGGYPEGVERIDEPGLRSLRTARHLQPGMVLTVEPGIYFIDHLLDEALADPARASFLNREVLQRFRGFGGVRIEEDVVVTDSGIELLTCVPRTVEEIEACMAGCDKAFTPFSGPK", "values": [{"measurement": "binding result", "setting": "20I-50Pdel-FXII", "result": "binds"}, {"measurement": "binding result", "setting": "153T-172Rdel-FXII", "result": "binds"}, {"measurement": "binding result", "setting": "[1]", "result": "binds"}]}
